What was measured:
[1] = molecular target: porcine fibrin (porcine) (UniProt P14460)
[2] = molecular target: human fibrin (human) (UniProt P02671)
Chain of UniProt P02671 (P02671 36-866, chain 1 of 3): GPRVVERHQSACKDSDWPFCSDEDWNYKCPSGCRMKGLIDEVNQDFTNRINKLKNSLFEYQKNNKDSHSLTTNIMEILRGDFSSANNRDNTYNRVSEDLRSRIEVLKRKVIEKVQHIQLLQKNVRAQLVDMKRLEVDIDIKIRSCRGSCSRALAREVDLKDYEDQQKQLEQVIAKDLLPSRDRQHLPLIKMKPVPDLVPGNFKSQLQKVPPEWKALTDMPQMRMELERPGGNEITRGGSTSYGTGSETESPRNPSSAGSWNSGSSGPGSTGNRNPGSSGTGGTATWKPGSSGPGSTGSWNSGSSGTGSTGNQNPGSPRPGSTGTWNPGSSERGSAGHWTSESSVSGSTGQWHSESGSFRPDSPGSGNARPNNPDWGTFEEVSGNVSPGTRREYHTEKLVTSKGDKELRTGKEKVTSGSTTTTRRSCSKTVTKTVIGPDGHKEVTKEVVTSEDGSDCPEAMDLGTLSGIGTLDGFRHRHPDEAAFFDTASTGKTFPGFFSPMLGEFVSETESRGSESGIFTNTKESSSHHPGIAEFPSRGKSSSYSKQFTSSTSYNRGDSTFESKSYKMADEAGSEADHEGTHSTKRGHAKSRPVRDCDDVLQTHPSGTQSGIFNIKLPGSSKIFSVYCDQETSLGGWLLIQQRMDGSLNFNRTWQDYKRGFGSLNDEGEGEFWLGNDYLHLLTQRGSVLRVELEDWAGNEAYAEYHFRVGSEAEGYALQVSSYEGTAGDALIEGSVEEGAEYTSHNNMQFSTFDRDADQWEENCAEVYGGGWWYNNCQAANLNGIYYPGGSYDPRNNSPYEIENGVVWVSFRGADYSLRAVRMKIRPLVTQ
Chain of UniProt P02671 (P02675 45-491, chain 2 of 3, further chain): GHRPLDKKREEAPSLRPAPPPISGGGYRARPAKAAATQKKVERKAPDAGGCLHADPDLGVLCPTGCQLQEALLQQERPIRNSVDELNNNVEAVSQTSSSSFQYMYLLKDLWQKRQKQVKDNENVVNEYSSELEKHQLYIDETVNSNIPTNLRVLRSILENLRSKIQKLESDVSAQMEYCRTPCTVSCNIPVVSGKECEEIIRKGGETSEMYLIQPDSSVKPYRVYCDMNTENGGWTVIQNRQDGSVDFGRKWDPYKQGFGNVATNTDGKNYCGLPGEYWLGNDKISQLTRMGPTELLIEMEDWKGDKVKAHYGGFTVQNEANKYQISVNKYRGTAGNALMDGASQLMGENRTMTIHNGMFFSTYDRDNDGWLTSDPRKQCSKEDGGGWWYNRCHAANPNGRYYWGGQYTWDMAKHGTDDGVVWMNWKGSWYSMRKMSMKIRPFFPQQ
Chain of UniProt P02671 (P02679 other isoform, or with tags, fused parts or gaps, chain 3 of 3, further chain): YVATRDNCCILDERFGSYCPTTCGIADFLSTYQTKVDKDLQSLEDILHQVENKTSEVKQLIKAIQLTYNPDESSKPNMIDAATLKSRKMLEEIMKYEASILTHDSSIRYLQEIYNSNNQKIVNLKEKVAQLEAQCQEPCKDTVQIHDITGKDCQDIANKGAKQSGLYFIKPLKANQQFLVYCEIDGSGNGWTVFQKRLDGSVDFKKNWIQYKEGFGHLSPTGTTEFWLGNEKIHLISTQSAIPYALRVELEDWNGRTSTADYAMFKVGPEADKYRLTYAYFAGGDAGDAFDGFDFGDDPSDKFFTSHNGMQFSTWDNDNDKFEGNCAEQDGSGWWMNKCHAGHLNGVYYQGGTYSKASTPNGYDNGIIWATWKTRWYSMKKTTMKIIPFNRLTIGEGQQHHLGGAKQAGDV

K m of overall fibrin breakdown by plasmin (clot lysis time by turbidity against fibrinogen 0 to 5 µM, batroxobin clots, 5 nM active plasmin) [1] [µM] | K m of overall fibrin breakdown by plasmin (clot lysis time by turbidity against fibrinogen 0 to 5 µM, batroxobin clots, 5 nM active plasmin) [2] [µM] | Substance
1.3 | 1.1 | human plasmin (from UniProt P00747 20-580) (enzyme)
4.9 | 3.1 | porcine plasmin (from UniProt P06867 20-809; P06867 20-809) (enzyme)

From PMC12817190
